Literature values as cited in PMC3563353.

Target: 4-phenylbutyryl-His-DPhe-Arg-Trp-Gly-Lys
Assay: competition binding

MC1R, sequence (Q01726 whole entry): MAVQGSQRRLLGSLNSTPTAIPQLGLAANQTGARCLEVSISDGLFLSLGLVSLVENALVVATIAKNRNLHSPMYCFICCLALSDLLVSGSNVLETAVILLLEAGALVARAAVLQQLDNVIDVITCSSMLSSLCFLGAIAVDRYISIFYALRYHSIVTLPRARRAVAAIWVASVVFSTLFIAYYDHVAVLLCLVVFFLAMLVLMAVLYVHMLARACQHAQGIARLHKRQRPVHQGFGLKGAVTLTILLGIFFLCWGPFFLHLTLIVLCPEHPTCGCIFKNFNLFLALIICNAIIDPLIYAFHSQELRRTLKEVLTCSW
MC4R, sequence (P32245 whole entry): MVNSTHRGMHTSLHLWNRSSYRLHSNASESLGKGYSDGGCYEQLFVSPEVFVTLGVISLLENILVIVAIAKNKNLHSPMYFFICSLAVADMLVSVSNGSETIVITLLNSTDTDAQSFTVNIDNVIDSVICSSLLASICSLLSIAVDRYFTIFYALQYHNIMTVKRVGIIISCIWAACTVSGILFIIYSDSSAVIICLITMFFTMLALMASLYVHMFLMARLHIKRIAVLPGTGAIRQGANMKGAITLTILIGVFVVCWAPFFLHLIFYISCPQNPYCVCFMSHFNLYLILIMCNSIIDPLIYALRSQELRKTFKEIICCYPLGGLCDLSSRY
MC5R, sequence (P33032 whole entry): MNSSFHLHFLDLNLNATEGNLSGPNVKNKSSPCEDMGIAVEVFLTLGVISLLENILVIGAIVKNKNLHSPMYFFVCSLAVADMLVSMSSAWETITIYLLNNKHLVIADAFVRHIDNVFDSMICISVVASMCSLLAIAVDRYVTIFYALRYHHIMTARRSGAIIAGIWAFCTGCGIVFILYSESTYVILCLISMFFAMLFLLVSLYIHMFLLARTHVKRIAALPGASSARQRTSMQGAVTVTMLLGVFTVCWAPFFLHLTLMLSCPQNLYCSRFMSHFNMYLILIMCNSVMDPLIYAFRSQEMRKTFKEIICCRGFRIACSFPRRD

| Ki [nM] | Substance |
| --- | --- |
| 46 | MC5R (from UniProt P33032) |
| 254 | MC4R (from UniProt P32245) |
| 0.24 | MC1R (from UniProt Q01726) |
